Laboratory results from article PMC11952658, “The zinc finger of DNA Ligase 3α binds to nucleosomes via an arginine anchor” (Research Square, 2025).

Molecular target: Cy3-labeled human histone nucleosome core particle reconstituted on the Widom 601 sequence (human, Cy3-maleimide on K119C)
Test: single-molecule fluorescence imaging on a tethered nucleosome (SMADNE, LUMICKS C-trap); Cy3-labeled undamaged 601 NCP ligated into 6 kb biotinylated DNA handles and tethered between optically trapped streptavidin beads, 4–5 pN tension; tagged proteins from nuclear extract; lifetimes from CRTD; KD from koff, apparent kon and protein concentration
Conditions: one partner purified

B1: Halo 635-ZnF-BRCT LIG3α (domain or fragment)
chain: MAEQRFCVDYAKRGTAGCKKCKEKIVKGVCRIGKVVPNPFSESGGDMKEWYHIKCMFEKLERARATTKKIEDLTELEGWEELEDNEKEQITQHIADLSSKAAGTPKKKAVVQAKLTTTGQVTSPVKGASFVTSTNPRKFSGFSAKPNNSGEAPSSPTPKRSLSSSKCDPEKADFTVVAGDEGSSTTGGSSEENKGPSGSAVSRKAPSKPSASTKKAEGKLSNSNSKDGNMQTAKPSAMKVGEKLATKSSPVKVGEKRKAADETLCQTKVLLDIFTGVRLYLPPSTPDFSRLRRYFVAFDGDLVQEFDMTSATHVLGSRDKNPAAQQVSPEWIWACIRKRRLVAPC
modifications: Janelia Fluor 635 HaloTag ligand on the HaloTag
  Kd: 1.1 ± 0.3 nM
